From patent publication US20150299686A1

What was measured:
[1] = biological target: FrsA (Fermentation Respiration Switch) protein from Vibrio vulnificus, wild type, recombinant (Vibrio vulnificus) (UniProt Q7MN61); test: cell-based or functional assay
[2] = biological target: non-phosphorylated recombinant IIA^Glc protein (crr gene product) from Vibrio vulnificus
[3] = biological target: phosphorylated recombinant IIA^Glc protein (crr gene product) from Vibrio vulnificus

## non-phosphorylated recombinant IIA^Glc protein (crr gene product) from Vibrio vulnificus
[1]
  catalytic activity of FrsA as fold over PDC: 17 times

B1: FrsA (Fermentation Respiration Switch) protein from Vibrio vulnificus, wild type, recombinant (protein)
chain: MSEEVSKNLSETLFVKHKQAIETSALTQYMPTSQSLLDEIKEKNGFSWYRNLRRLQWVWQGVDPIEQEQVLARIASSKHSRTDEQWLDTVMGYHSGNWAYEWTRLGMEHQKRAGEMTNEAASEALFSASLCYSIAGYPHLKSDNLAIQAQVLANSAYLEAAKKSKYIIKQLEIPFEKGKITAHLHLTNTDKPHPVVIVSAGLDSLQTDMWRLFRDHLAKHDIAMLTVDMPSVGYSSKYPLTEDYSRLHQAVLNELFSIPYVDHHRVGLIGFRFGGNAMVRLSFLEQERIKACVILGAPIHDIFASPQKLQQMPKMYLDVLASRLGKSVVDIYSLSGQMAAWSLKVQGFLSSRKTKVPILAMSLEGDPVSPYSDNQMVAFFSTYGKAKKISSKTITQGYEQSLDLAIKWLEDELLR
[2]
  Km (pyruvate decarboxylation by FrsA with dephospho-IIA^Glc added): 390 µM
  kcat (pyruvate decarboxylation by FrsA with dephospho-IIA^Glc added): 2980 ± 158 s⁻¹
  kcat/Km (pyruvate decarboxylation by FrsA with dephospho-IIA^Glc added): 7.64e+06 ± 713000 M⁻¹ s⁻¹
[3]
  Km (pyruvate decarboxylation by FrsA with phospho-IIA^Glc added): 390 µM
  kcat (pyruvate decarboxylation by FrsA with phospho-IIA^Glc added): 1310 ± 48 s⁻¹
  kcat/Km (pyruvate decarboxylation by FrsA with phospho-IIA^Glc added): 3.36e+06 ± 150000 M⁻¹ s⁻¹
